According to patent US20070243589A1 (Pfizer, published 2007):
Substitutions are numbered along the chain they refer to. Each block holds one binder with its values, some of them ahead of it.

How the values were obtained:
[1] = molecular target: T1, biotinylated IL-22 with an N-terminal His/FLAG tag (bio.IL-22H/F) (human, UniProt Q9GZX6 34-179, biotinylated (site not stated)); assay: DELFIA competition assay: scFv titrated against bio.IL-22H/F binding to the captured IL-22 receptor complex
T1 construct: not shown: N-terminal His/FLAG tag
T1 sequence: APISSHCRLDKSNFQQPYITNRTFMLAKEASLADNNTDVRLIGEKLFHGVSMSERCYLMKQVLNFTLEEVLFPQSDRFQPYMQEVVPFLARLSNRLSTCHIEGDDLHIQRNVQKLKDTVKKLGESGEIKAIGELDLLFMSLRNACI
Description: Microtiter plates were coated with an IL-22 receptor complex antibody (1 μg/ml in PBS), and incubated for 1.5 hours at room temperature. Plates were washed three times in PBST, and blocked for 1 hour at room temperature with 2% MPBS. After a further 3 washes, diluted cell conditioned medium containing an IL-22 receptor complex was added and incubated overnight at 4° C. Crude scFv supernatants were prepared as described above. The following day, 25 μl of diluted scFv sample and 25 μl of bio.IL-22H/F (6 ng/ml) were added to the washed plates, and incubated for 1.5 hours at room temperature. Plates were washed 3 times in PBST, then binding of bio.IL-22H/F to the IL-22 receptor complex was detected with Europium-Streptavidin and the DELFIA® reagent kit (PerkinElmer). Time Resolved Fluorescence was measured using a Victor 2™ Plate Reader (Perkin Elmer).
Purified scFv from positive clones identified from the screening were tested in the DELFIA® IL-22 receptor complex competition assay as described above. A titration of scFv concentrations was used in order to establish the clone potency as measured by IC₅₀ values in the assay. Fourteen optimized clones were designated 097D09, 062A09, 062G05, 087B03, 367D04, 368D04, 166B06, 166G05, 375G06, 376B10, 354A08, 355B06, 355E04, and 356A11.

[2] = molecular target: T2, human IL-22 (human, UniProt Q9GZX6 34-179); assay: cell-based or functional assay
T2 sequence: T1 sequence

[3] = molecular target: T3, BSA (bovine, UniProt P02769); assay: ELISA: wells labelled BSA, IgG at 1 µg/ml, HRP anti-human IgG, A450
T3 construct: background wells labelled BSA; also called bovine serum albumin
T3 sequence (P02769 25-607 limits assumed): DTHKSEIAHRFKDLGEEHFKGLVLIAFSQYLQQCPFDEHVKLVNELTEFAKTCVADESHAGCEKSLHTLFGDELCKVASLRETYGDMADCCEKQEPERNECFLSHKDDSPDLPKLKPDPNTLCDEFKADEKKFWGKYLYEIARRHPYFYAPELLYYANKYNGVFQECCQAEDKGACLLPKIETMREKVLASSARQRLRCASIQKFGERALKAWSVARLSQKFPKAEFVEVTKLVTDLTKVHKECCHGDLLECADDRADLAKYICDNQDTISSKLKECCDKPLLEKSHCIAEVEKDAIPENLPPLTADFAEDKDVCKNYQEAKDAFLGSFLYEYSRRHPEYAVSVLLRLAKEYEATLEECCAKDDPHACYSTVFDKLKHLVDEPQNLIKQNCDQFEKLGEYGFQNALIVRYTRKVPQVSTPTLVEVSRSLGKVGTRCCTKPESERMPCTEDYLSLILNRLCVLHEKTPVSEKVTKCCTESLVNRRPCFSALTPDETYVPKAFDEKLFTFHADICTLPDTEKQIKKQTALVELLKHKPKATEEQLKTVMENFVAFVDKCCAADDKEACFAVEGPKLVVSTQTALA
Description: (§1) Cross species reactivity of germlined and non-germlined optimized antibodies were determined as follows: ELISA plates (Costar, Cat. #3590) were coated overnight with 1 μg/ml of rat, mouse, or human IL-22 or human IL-26 in PBS buffer. Plates were washed with PBST buffer (0.05% Tween20 in PBS) 3 times, then blocked with 1% BSA (Sigma A8918)/PBST for 1 hr at RT. Antibodies were added at 1 μg/ml, incubated 1 hr at 25° C. […] The plates were incubated for 1 hour at 25° C., then washed with PBST, and developed with TMB (KPL, Cat. #50-76-04). Reaction was stopped with 0.18 M H₂S0₄. Plates were read at OD 450 nm.

[4] = molecular target: T4, IL-26 (human, UniProt Q9NPH9); assay: ELISA: plate coated with 1 µg/ml human IL-26, IgG at 1 µg/ml, HRP anti-human IgG, A450
T4 construct: coated on the ELISA plate at 1 µg/ml; also called human IL-26
T4 sequence (cytokine, looked up): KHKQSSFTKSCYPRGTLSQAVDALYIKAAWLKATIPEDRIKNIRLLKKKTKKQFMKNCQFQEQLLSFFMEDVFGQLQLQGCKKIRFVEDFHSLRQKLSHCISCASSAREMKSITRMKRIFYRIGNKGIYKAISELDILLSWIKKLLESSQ
Description: as §1

B2: 367D04 scFv (non-germlined) (scFv)
scFv: EVQLVESGGGVVRPGGSLRLSCAASGFTFDDYGMNWVRQAPGKGLEWVSGVNWNGGTRDYAASVKGRFTISRDNAKNSLYLQMNSLRAEDTALYYCARGWYSGSPWSLGHWGRGTLVTVSSGGGGSGGGGSGGSGGGSGGSGGGSSGGGSGGGGSAQAVLTQPSSVSGSPGQSVTISCTGASGDVGAYNFVSWYQQHPGKTPKLIIYDVNKRPSGVSNRFSGSKSGNTASLTISRLQAEDESDYYCSSYTSRYTTEFGGGTKVTVLGAAAH
notes: Optimized clone derived from GIL60
- IC50 [1]: 0.33 nM
- IC50 of scFv in BaF3-IL-22 proliferation assay [2]: 0.16 nM

B3: 355E04 scFv (non-germlined) (scFv)
scFv: QVQLVQSGAEVKKPGASVKVSCKASGYTFTHYYMHWVRQAPGQGLEWVGWINPYTGGAFYAQKFQGRVTMTRDTSINTAYMELSRLGSDDTAVYYCAREPEKFDSPNAEIWGRGTMVTISSEGGGSGGGGSGGSGSAQAVLTQPSSVSGAPGQRVTISCTGSSSNIGAGYGVHWYQQLPGTAPKLLIYGNSNRPSGVPDRFSGSKSGTSASLAITGLQAEDEADYYCQSYDSSLSGYVFGTGTQLTVLSA
notes: Optimized clone derived from GIL92
- IC50 [1]: 0.41 nM
- IC50 of scFv in BaF3-IL-22 proliferation assay [2]: 0.192 nM

B4: 376B10 scFv (non-germlined) (scFv)
scFv: EVQLVQSGAEVKKPGASVKVSCQASGYTFSDYYIHWVRQTPGQGFEWMGWVNPDTGGTRYAQKFQGWVTMTRDMSNTTAYMELPGLRDDDTAVYYCARDLTGYDQYTAWGQGTLVTVSSGGGGSGGGGSGGGGSAQSVLTQPPSVSVAPGKTATITCGGNNFRNKRVHWYQQRPGQAPVLVIYYDSDRPSGIPERFSGSRSGNTATLTISRVEAGDEADFYCSTFDPFTDRPLFGGGTKLTVLGAAAH
notes: Optimized clone derived from GIL68
- IC50 [1]: 0.79 nM
- IC50 of scFv in BaF3-IL-22 proliferation assay [2]: 0.104 nM

B5: 062A09 (antibody, V domains shown)
VH: QVQLVQSGAEVKKPGASVKVSCKASGYTFTSYGISWVRQAPGQGLEWMGWVSAYTGNTNYAQKFQGRVTMTTDTSTSTAYMELRSLRSDDTAVYYCARDRGYYDAFDIWGQGTLVTVSS
VL: DIQMTQSPSTLSASVGDRVTITCRASEGIYHWLAWYQQKPGKAPKLLIYKASSLASGVPSRFSGSGSGTEFTLTISSLQPDDFATYYCQQMGEYNATFGGGTKVEIKR
notes: The list MOLECULES holds only the non-germlined 062A09 IgG; also called 062A09 germlined IgG
- binding result [3]: no binding (tested: 1 µg/ml (single concentration))
- binding result [4]: no binding (tested: 1 µg/ml (single concentration))

B6: 062G05 IgG (non-germlined) (antibody, V domains shown)
VH: B5 VH with Q6E, V51I
VL: B5 VL with V15I, V58A, S67F, E70D, Y94W, N95K, T97A, V104L
notes: IgG
- binding result [3]: no binding (tested: 1 µg/ml (single concentration))
- IC50 of IgG in BaF3-IL-22 proliferation assay [2]: 0.112 nM

B8: 375G06 scFv (non-germlined) (scFv)
scFv: EVQLVQSGAEVKKPGASVKVSCQASGYTFSDYYIHWVRQTPGQGFEWMGWVNPDTGGTRYAQKFQGWVTMTRDMSNTTAYMELPRLRDDDTAVYYCARDLTGYDYYDRWGQGTLVTVSSGGGGSGGGGSGGGGGGSGGGGGGSGGGGSAQSVLTQPPSMSVAPGKTATITCGGNNFRNKRVHWYQQRPGQAPVLVIYYDSDRPSGIPERFSGSRSGNTATLTISRVEAGDEADFYCQVWDFLADEAMFGGGTKLTVLGAAAH
notes: as for B4
- IC50 [1]: 0.44 nM
- IC50 of scFv in BaF3-IL-22 proliferation assay [2]: 0.118 nM

B10: 097D09 scFv (non-germlined) (scFv)
scFv: EVQLVESGGGLVTPGGSLRLSCAASGFTFSDYYMSWVRQAPGRGLEWVSAISGSGGSTYYADSVKGRITISRDNAKNSLYLQMSSLRSEDTAVYYCARGLWVWDPLDYWGRGTLVTVSSGGGGSGGGGSGGGGSDIQMTQSPSTLSASIGDRVTITCRASEGIYHWLAWYQQKPGKAPKLLIYKASSLASGAPSRFSGSGFGTDFTLTISSLQPDDFATYYCQQYSEFAWTFGGGTKLEIKRAAAH
notes: Optimized clone derived from GIL01
- IC50 [1]: 0.39 nM
- IC50 of scFv in BaF3-IL-22 proliferation assay [2]: 0.298 nM

B13: 356A11 scFv (non-germlined) (scFv)
scFv: QVQLVQSGAEVKKPGASVKVSCKASGYTFTNYYMHWVRQAPGQGLEWVGWINPYTGSAFYAQKFRGRVTMTRDTSINTAYMELSRLGSDDTAVYYCAREPEKFDSDDSDVWGRGTMVTVSGGGGSSGGGGSGGSGSAQAVLTPPSVSGAPGQRVTISCTGSSSNIGAGYGVHWYQQLPGTAPKLIIYGDSSRPSGVPDRFSGSKSGTSASLAITGLQAEDEADYYCQSYDNSLSGYVFGTGTQLTVLSA
notes: as for B3
- IC50 [1]: 0.55 nM
- IC50 of scFv in BaF3-IL-22 proliferation assay [2]: 0.124 nM

B14: 062G05 scFv (non-germlined) (scFv)
scFv: QVQLVESGAEVKKPGASVKVSCKASGYTFTSYGISWVRQAPGQGLEWMGWISAYTGNTNYAQKFQGRVTMTTDTSTSTAYMELRSLRSDDTAVYYCARDRGYYDAFDIWGQGTLVTVSSGGGGSGGGGSGGGGSDIQMTQSPSTLSASIGDRVTITCRASEGIYHWLAWYQQKPGKAPKLLIYKASSLASGAPSRFSGSGFGTDFTLTISSLQPDDFATYYCQQMGEWKAAFGGGTKLEIKRAAAH
notes: Optimized clone derived from GIL16
- IC50 [1]: 0.1 nM
- IC50 of scFv in BaF3-IL-22 proliferation assay [2]: 0.182 nM

Continued by falling IC50 [1], values first:

- IC50 [1]: 0.32 nM
- IC50 of scFv in BaF3-IL-22 proliferation assay [2]: 0.186 nM
B9: 368D04 scFv (non-germlined) (scFv)
scFv: EVQLVESGGGVVRPGGSLRLSCAASGFTFDDYGMNWVRQAPGKGLEWVSGVNWNGGTRDYAASVKGRFTISRDNAKNSLYLQMNSLRAEDTALYYCARGWYSGAAWNMGYWGRGTLVTVSSGGGGSGGGGSGGSGGGSGGGGGGSGGGGSAQAVLTQPSSVSGSPGQSITISCTGASGDVGAYNFVSWYQQHPGKTPKLIIYDVNKRPSGVSNRFSGSKSGNTASLTISGLQAEDESDYYCASLVSDFSVVFGGGTKVTVLGAAAH
notes: as for B2

- IC50 [1]: 0.19 nM
- IC50 of scFv in BaF3-IL-22 proliferation assay [2]: 0.204 nM
B7: 166G05 scFv (non-germlined) (scFv)
scFv: EVQLVQSGAEVKKPGASVKVSCQASGYTFSDYYIHWVRQTPGQGFEWMGWVNPDTGGTRYAQKFQGWVTMTRDMSNTTAYMELPRLRDDDTAVYYCARDLTGFDPFDIWGQGTLVTVSSGGGGSGGGGSGGGGSAQSVLTQPPSVSVAPGKTATITCGGNNFRNKRVHWYQQRPGQAPVLVIYYDSDRPSGIPERFSGSRSGNTATLTISRVEAGDEADFYCQVWDFLTDSGSFGGGTKLTVLGAAAH
notes: as for B4

- IC50 [1]: 0.18 nM
- IC50 of scFv in BaF3-IL-22 proliferation assay [2]: 0.183 nM
B12: 355B06 scFv (non-germlined) (scFv)
scFv: EVQLVQSGAEVKKPGASVKVSCQASGYTFTDYYMHWVRQAPGQGLEWVGWINPYTGSAFYAQKFRGRATMTRNTSINTAYMELSRLGSDDTAVYYCAREPEKFGESSGQLWGRGTMVTISSGGGGSGGGGSGGSGSAQAVLTQPSSVSGAPGQRVTISCTGSSSNIGPGYGVHWYQQLPGTAPKLLIYGDSNRPSGVPDRFSGSKSGTSASLAITGLQAEDEADYYCQSYDSGLSGYVFGTGTQLTVLSA
notes: as for B3

- IC50 [1]: 0.16 nM
- IC50 of scFv in BaF3-IL-22 proliferation assay [2]: 0.219 nM
B11: 354A08 scFv (non-germlined) (scFv)
scFv: QVQLVQSGAEKKPGASVKVSCKASGYTFTDYYMHWVRQAPGQGLEWVGWINPYTGGAFYAQKFRGRVTMTRDTSINTAYMELSRLGSDDTAVYYCAREPERFGDSTGQVWGRGTMVTVSSGGGGSGGGGSGGSRSAQAVLTQPSSVSGAPRQRVTISCTGSSSNIGAGYGVHWYQQLPGTAPKLLIYGNSNRPSGVPDRFSGSKSGTSASLAITGLQAEDEADYYCYHWDKEQSGYVFGTGTQLTVLSA
notes: as for B3

- IC50 [1]: 0.13 nM
- IC50 of scFv in BaF3-IL-22 proliferation assay [2]: 0.267 nM
B15: 062A09 scFv (non-germlined) (scFv)
scFv: B14 scFv with I51V, S85G, F106Y, W228Y, K229N, A231T, F232I
notes: as for B14

- IC50 [1]: 0.12 nM
- IC50 of scFv in BaF3-IL-22 proliferation assay [2]: 0.212 nM
B1: 087B03 scFv (non-germlined) (scFv)
scFv: EVQLVESGGGVVRPGGSLRLSCAASGFTFDDYGMNWVRQAPGKGLEWVSGVNWNGGTRDYAASVKGRFTISRDNAKNSLYLQMNSLRAEDTALYYCARGWYSGAAWNMGYWGRGTLVTVSSGGGGSGGGGSGGGGSAQAVLTQPSSVSGSPGQSITISCTGASGDVGAYNFVSWYQQHPGKTPKLIIYDVNKRPSGVSNRFSGSKSSNTASLTISGLQAEDESDYYCSSYTSTFSVVFGGGTKVTVLGAAAH
notes: as for B2
